Measured values published in article PMC3715477.

Molecular target: CC-Gp047 (residues 1040–1365 of Gp047, putative receptor binding protein of C. jejuni phage NCTC12673) (Campylobacter jejuni phage NCTC12673)
Experiment: SDS-resistant oligomers (method not named; data not shown); data not shown; oligomers called SDS-resistant; construct and conditions not told

Q: Which stoichiometry N does the source give for “CC-Gp047 (residues 1040–1365 of Gp047, putative receptor binding protein of C. jejuni phage NCTC12673) (domain or fragment)” here?
A: > 3
